Test results taken from patent publication US20260234242A1 (HAINAN SIMCERE ZAIMING PHARMACEUTICAL, published 2026).

T1: human CDH6 on tumor cells (OVCAR3 cells, PA-1 cells) (human, UniProt P55285 54-790)
T1 sequence: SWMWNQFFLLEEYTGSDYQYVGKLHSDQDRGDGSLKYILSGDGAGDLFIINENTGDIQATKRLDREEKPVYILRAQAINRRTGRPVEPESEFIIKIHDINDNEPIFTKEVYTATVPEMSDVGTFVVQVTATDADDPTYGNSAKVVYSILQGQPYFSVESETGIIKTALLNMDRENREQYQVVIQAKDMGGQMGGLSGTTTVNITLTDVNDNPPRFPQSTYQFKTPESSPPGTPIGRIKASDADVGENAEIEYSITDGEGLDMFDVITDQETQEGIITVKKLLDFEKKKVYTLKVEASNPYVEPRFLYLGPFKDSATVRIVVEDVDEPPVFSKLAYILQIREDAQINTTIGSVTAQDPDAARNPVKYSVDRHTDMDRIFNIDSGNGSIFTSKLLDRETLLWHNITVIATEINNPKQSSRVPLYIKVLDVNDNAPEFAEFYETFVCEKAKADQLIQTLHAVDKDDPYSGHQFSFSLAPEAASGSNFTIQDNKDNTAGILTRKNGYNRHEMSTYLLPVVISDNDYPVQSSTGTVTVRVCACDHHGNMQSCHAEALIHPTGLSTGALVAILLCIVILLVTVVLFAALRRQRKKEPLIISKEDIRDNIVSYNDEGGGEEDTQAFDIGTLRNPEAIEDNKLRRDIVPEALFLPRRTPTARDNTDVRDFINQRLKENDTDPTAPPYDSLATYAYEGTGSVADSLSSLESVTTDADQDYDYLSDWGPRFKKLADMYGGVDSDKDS

T2: human CDH6 with EC1 removed, on HEK293T cells (HEK293T-hCDH6-EC1 deletion) (human, UniProt P55285 160-790)
T2 construct: Signal peptide not removed here
T2 sequence: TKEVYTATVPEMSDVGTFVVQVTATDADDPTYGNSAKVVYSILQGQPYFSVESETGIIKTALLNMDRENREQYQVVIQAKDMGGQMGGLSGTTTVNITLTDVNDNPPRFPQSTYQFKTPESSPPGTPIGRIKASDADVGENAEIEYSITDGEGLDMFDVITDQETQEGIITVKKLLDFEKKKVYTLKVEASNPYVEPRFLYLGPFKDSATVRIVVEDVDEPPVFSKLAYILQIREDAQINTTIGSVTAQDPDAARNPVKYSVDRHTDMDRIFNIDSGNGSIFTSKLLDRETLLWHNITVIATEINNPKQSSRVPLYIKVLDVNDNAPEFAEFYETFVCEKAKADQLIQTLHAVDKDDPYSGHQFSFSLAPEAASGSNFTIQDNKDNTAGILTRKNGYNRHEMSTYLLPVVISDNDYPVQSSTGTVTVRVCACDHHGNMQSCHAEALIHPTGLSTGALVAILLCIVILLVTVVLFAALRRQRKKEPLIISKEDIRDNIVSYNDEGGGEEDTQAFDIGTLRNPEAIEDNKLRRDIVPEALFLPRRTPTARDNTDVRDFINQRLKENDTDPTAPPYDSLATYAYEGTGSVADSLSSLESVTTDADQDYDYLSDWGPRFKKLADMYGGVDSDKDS


What was measured:
[1] = molecular target: T1, human CDH6 on tumor cells (OVCAR3 …); assay: FACS, OVCAR3 cells, 4° C. arm of endocytosis assay
Experimental: OVCAR3 cells were cultured until a confluence of 90% was reached, the medium was removed by pipetting, the cells were washed once with PBS, and then treated with an enzyme-free cell dissociation solution (Versene, purchased from Gibco, Cat. No. 15040-066) and the cells were collected. The cells were washed once with PBS, counted, resuspended to 2×10⁶ cells/mL in an FACS buffer (PBS+2% FBS), and then added to two 96-well plates at 50 μL/well. The chimeric antibodies were diluted with FACS buffer (PBS+2% FBS) to 10 μg/mL and separately added to the two 96-well plates at 50 μL/well, and the plates were incubated at 4° C. for 1 h. After the cells were washed 3 times with PBS, the cells were resuspended in an FACS buffer. One 96-well plate was incubated at 4° C. for 1 h, and the other 96-well plate was incubated at 37° C. for 1 h. […] After the plates were centrifuged and washed 2 times with PBS, the cells were resuspended in an FACS buffer. The mean fluorescence intensity (MFI) was measured using FACS Canton II (BD). The chimeric antibodies tested all had good endocytic activity.
Some of the antibodies were selected for the endocytic activity assay, and the method for assaying the endocytic activity of the humanized antibodies in OVCAR3 cells was the same as that in 2.4. The humanized antibodies tested all had good endocytic activity.

[2] = molecular target: T1, human CDH6 on tumor cells (OVCAR3 …); assay: FACS, OVCAR3 cells
Experimental: OVCAR3 cells with high expression of CDH6 and PA-1 cells with moderate expression of CDH6 were used to detect the binding activity of the antibodies to the cells. […] The cells were washed once with PBS, counted, resuspended to 2×10⁶ cells/mL in an FACS buffer (PBS+2% FBS), and then added to a 96-well plate at 50 μL/well. The chimeric antibodies were diluted with FACS buffer (PBS+2% FBS) and added to the 96-well plate at 50 μL/well, and the plate was incubated at 4° C. for 1 h. […] The dilution was added to the 96-well plate at 50 μL/well, and the plate was incubated at 4° C. for 1 h. After the plates were centrifuged and washed 2 times with PBS, the cells were resuspended in an FACS buffer. The mean fluorescence intensity (MFI) was measured using FACS Canton II (BD). Analysis was performed by the GraphPad Prism software, data were fitted, and EC50 values were calculated. The chimeric antibodies tested had strong binding to both OVCAR3 cells and PA-1 cells.
According to the above sequences, heavy chain (HC) and light chain (LC) plasmids were constructed (the nucleic acid sequences encoding the VH and VL of the antibodies were recombined into an expression vector carrying a signal peptide (SEQ ID NO: 132, […]) and a heavy chain constant region/light chain constant region sequence to obtain recombinant plasmids expressing VH-CH1-Fc/VL-CL). According to the expression and purification methods in Example 2, the hCDH6-1 humanized antibodies were obtained, and the binding activity of the humanized antibodies was detected by ELISA and FACS (see 2.2 and 2.3 for the method).

[3] = molecular target: T2, human CDH6 with EC1 removed, on HEK293T …; assay: FACS, HEK293T-hCDH6-EC1 deletion cells

| Binder | MFI_4° C. [1] [MFI] | EC50 [2] [nM] | Max MFI [2] [MFI] | binding result [3] |
| --- | --- | --- | --- | --- |
| DS-H01L02 (antibody, human IgG1, kappa, V domains shown, Positive control, variable regions from WO2018212136A1; also called positive control anti-human CDH6 antibody) VH: EVQLVQSGAEVKKPGASVKVSCKASGYTFTRNFMHWVRQAPGQGLEWMGWIYPGDGETEYAQKFQGRVTITADTSTSTAYMELSSLRSEDTAVYYCARGVYGGFAGGYFDFWGQGTLVTVSS VL: DIQMTQSPSSLSASVGDRVTITCKASQNIYKNLAWYQQKPGKAPKLLIYDANTLQTGVPSRFSGSGSGSDFTLTISSLQPEDFATYFCQQYYSGWAFGQGTKVEIKR | 11400 |  |  |  |
| CHI-CDH6-1 (antibody, human IgG1, kappa, V domains shown, also called CHI-hCDH6-1; CH1-CDH6-1) VH: QVQLQQPGAELVRPGSSVKLSCKASGYTFTNYWMHWVKQRPIEGLEWIGDIDPSHSETHYTQKFKDKATLTVDKSSSTAYMQLSSLTSEDSAVYYCARGDLGRFDYWGQGTTLTVSS VL: DIVLTQSPASLAVSLGQRATISCRASESVSIHGTHLMHWYQQKSGQPPKLLIYAASNLESGVPARFSGSGSETDFTFNIHPVEEEDAATYFCQQSFEDPWTFGGGTKLEIKR |  | 0.194 | 14900 | no binding |
| CHI-CDH6-7 (antibody, human IgG1, kappa, V domains shown, also called CH1-CDH6-7; chimeric antibody of murine CDH6-7) VH: EVKLVESGGGLVKPGGSLKVSCAASGFTFSDHGMAWVRQAPGKGPEWVAFISNLAYSIYYADTVTGRFTISRENAKNTLYLEMSSLRSEDTAMYYCARVYVKWYFDVWGAGTTVTVSS VL: DIQMTQSPASLSASVGETVTITCRASENIDSYLAWYQQKQGKSPQLLVFAATLLADGVPSRFSGSGSGTQYSLKINSLQSEDVARYYCQHYYSTPLTFGAGTKLELKR |  |  |  | no binding |
| NOV0712 (antibody, human IgG1, kappa, V domains shown, Positive control, variable regions from WO2018212136A1; also called positive control anti-human CDH6 antibody) VH: QVQLLESGGGLVQPGGSLRLSCAASGFTFSSHGMHWVRQAPGKGLEWVSVISGSGSNTGYADSVKGRFTISRDNSKNTLYLQMNSLRAEDTAVYYCARQWGSYAFDSWGQGTLVTVSS VL: DIQMTQSPSSLSASVGDRVTITCRASQSISSYLNWYQQKPGKAPKLLIYAVSTLQSGVPSRFSGSGSGTDFTLTISSLQPEDFATYYCQQSGTFPPTTFGQGTKVEIKR | 13600 |  |  |  |

Second part, the binder after the results:

| MFI_4° C. [1] [MFI] | EC50 [2] [nM] | Max MFI [2] [MFI] | binding result [3] | Binder |
| --- | --- | --- | --- | --- |
| 20500 |  |  |  | hCDH6-6-H2L2 (antibody, V domains shown, Humanized) VH: EVQLVQSGAEVKKPGASVKVSCKASGYTFTDYYMAWVRQAPGQGLEWMGYIFPNSGGTDYSQKFKGRVTLTVDKSTSTVYMELSSLRSEDTAVYYCARELGADYGDYYAMDHWGQGTTVTVSS VL: DIQMTQSPSSLSASVGDRVTITCRASENIDSYLAWYQQKPGKSPKLLVYSATLLADGVPSRFSGSGSGTDYTLTISSLQPEDFATYYCQHYYRTPPTFGQGTKLEIK |
| 20200 | 0.17 | 14800 |  | hCDH6-1-H2L3 (antibody, V domains shown, Humanized) VH: EVQLVQSGAEVKKPGSSVKVSCKASGYTFTNYWMHWVRQAPGQGLEWMGDIDPSHSETHYTQKFKDRVTITVDKSTSTAYMELSSLRSEDTAVYYCARGDLGRFDYWGQGTTVTVSS VL: DIQMTQSPSSLSASVGDRVTITCRASESVSIHGTHLMHWYQQKPGKPPKLLIYAASNLESGVPSRFSGSGSETDFTFTISSLQPEDIATYYCQQSFEDPWTFGGGTKVEIK |
|  |  |  | no binding | CHI-CDH6-5 (antibody, human IgG1, kappa, V domains shown, also called CH1-CDH6-5; chimeric antibody of murine CDH6-5) VH: QVQLQQSGAELVRPGTSVKMSCKAAEYTFTNYWIGWVKQRPGHGLEWIGDLYPGGDHANYNEKFEGKATLTADTSSSTAYMQLSSLTSEDSAIYYCARGMLTTGFDSWGQGTTLTVSS VL: DIVMSQSPSSLAVSAGEKVTMSCKSSQSLFNSRTRKNYLAWYQQKPGQSPKLLIYWASTRESGVPDRFTGSGSGTDFTLTISSVQAEDLAVYYCKQSYYLRTFGGGTKLEIKR |
